Data on two compounds can be found in US20260365692A1, “COMPOSITIONS COMPRISING PROTEINS DISSOLVED IN FLUORINATED SOLVENTS, AND METHODS OF MAKING AND USING THE SAME” (priority 2022, published 2026).

One series concerns proteinase K. Briefly: β-Gal activity after proteinase K exposure. The series is classed as physicochemical. The conditions noted are these: 24 hours. From the text:
(§1) FIGS. 54A-54C depict the relative activity of the β-Gal protein dispersed in PBS or PFOc solvents without and with contamination by (FIG. 54A) proteinase K, (FIG. 54B) bleach or (FIG. 54C) hydrochloric acid. Data shown as average±s.d. of n=3 technical replicates. Statistical significance between conditions is indicated by a line using unpaired Student's t-test with n.s.=not significant, * p<0.05, ** p<0.01, and *** p<0.001.
An equal volumetric amount of β-Gal and proteinase K stocks were mixed and incubated together for 24 hours. The remaining active β-Gal was evaluated by adding ONPG substrate diluted in PBS at 4 mg/mL directly to the samples. This action eluted β-Gal from PFOc solvent and immediately starting ONPG conversion without further β-Gal disruption from residue proteinase K that was also eluted into aqueous buffer. The enzymatic activity was calculated from measuring absorbance (420 nm) after 15-minute conversion. […] A likely explanation for this is that the proteinase K protein is also coated by the PD-7 additive after addition to the PFOc solvent, leading to its segregation from the co-dispersed β-Gal protein.

A short description of series [1]: β-Gal activity after hydrochloric acid exposure. Type of series: physicochemical. The conditions noted are these: β-Gal in PFOc. On the procedure: as §1
Here, stock of lyophilized β-Gal was prepared then dispersed in PBS or PFOc. A small volumetric quantity (1% v/v) of 10% bleach was added to the protein samples. Immediately, an equal volume of PBS containing 4 mg/mL ONPG substrate was added to the sample and incubated for 5 minutes to allow for complete substrate conversion. Last, absorbance was taken at 420 nm on the eluted samples, and relative activity was calculated by normalizing absorbance of converted ONPG in oxidizer-treated samples against their corresponding untreated group. […] Here, stock of lyophilized B-Gal was prepared then dispersed in PBS or PFOc. A small volumetric quantity (4% v/v) of 0.1 M HCl was added to the protein samples. After 30 seconds incubation, PBS containing 4 mg/mL ONPG was added to each of the samples to elute and start substrate conversion. After 3-minute conversion, the eluted samples were retrieved, and absorbance was read at 420 nm. […]

Series [2] in a line: Pharmacokinetics of β-Gal formulations in C57BL/6 mice (Example 4). The series is classed as in vivo. The note with it: i.v. From the text: FIG. 55 depicts time-dependent enzymatic activity of β-Gal in plasma delivered systemically in either saline (β-GalSaline) or extracted PFOc (β-GalExt. PFOc). Data shown as average±s.d. of n=5 technical replicates. Statistical significance determined using Student's t-test and represented as n.s.=not significant, * p<0.05.
To test whether PD-7 coating and PFOc dispersion influences the pharmacokinetic properties of formulated proteins, f-Gal formulations were intravenously administered to C57BL/6 mice and monitored time dependent serum bioavailability (FIG. 55). This experiment utilized a fluorescent conversion substrate to monitor the amount of functional protein in serum, thereby investigating changes to both bioavailability and bioactivity. Due to the large solution volumes administered (150 μL, ~15% of mouse blood volume), PFOc dispersed proteins were extracted into sterile saline before injection to avoid hyponatremia. Future applications in larger mammals would allow direct injection of the fluorous dispersion, without pre-extraction, due to the increased blood volumes and bio-inert nature of most perfluorocarbon solvents. […] However, variance in the data yielded statistical significance only at the t=0 hr and t=3 hr time points.

For the next series, the target named is transferrin (Bos taurus, UniProt Q29443). Briefly: Circular dichroism with PFNA, transferrin. Details: species or system bovine. From the text: (§2) FIGS. 14A-14L depict circular dichroism spectra of Hb (FIG. 14A), GFP (FIG. 14B), BSA (FIG. 14C), β-Gal (FIG. 14D), rabbit serum IgG (FIG. 14E), transferrin (FIG. 14F), and urease (FIG. 14G) in the absence (black line) or presence (dashed lines) of PFNA. Increasing dash sequence indicated higher concentration of PFNA. FIG. 14H: Change in molar ellipticity at 216 nm (Δθ216) of PFNA-treated proteins, relative to native controls, as a function of increasing ligand concentration. FIG. 14I: Percentage change in secondary structural motifs of Hb, β-Gal and IgG between the native protein and 1 mM PFNA treated samples. β-sheet structures were further differentiated into parallel and antiparallel conformations. Hb, β-Gal and IgG were prioritized for analysis based on their significant spectral shift in the presence of 1 mM PFNA. FIGS. 14J-14L: Sensograms for BSA (FIG. 14J), β-gal (FIG. 14K), and IgG (FIG. 14L) showing relative response (R.U.) at 10, 25, 50, 75, and 100 μM.
To explore PFNA-mediated changes in protein structure, dose-response circular dichroism (CD) studies were performed (FIG. 14A-14G). […] Remarkably, these structural changes endured even at sub-stoichiometric PFNA:protein ratios (see 0.001 mM PFNA in […]; protein concentration was constant at 0.01 mM).

In series [3] the test system is β-gal. Briefly: Isothermal titration calorimetry, β-Gal. The series is classed as binding. From the text:
To test this assertion, PFNA binding to three exemplary proteins, BSA, β-Gal and IgG, was studied via isothermal titration calorimetry (ITC) and surface plasmon resonance (SPR) techniques. […] SPR analysis yielded similar results, with sensorgrams (FIGS. 14J-14L) that diverged from a simple 1:1 ligand-protein model. […] Similar phenomenon may explain the negative signals of the SPR data and further support the ability of PFNA to modulate the conformational plasticity of adsorbed proteins.

For series [4], the system named is β-gal. Briefly: Surface plasmon resonance, β-Gal. The series is classed as binding. The conditions noted are these: after reference correction.
Description: as §2
To test this assertion, PFNA binding to three exemplary proteins, BSA, β-Gal and IgG, was studied via isothermal titration calorimetry (ITC) and surface plasmon resonance (SPR) techniques. […] SPR analysis yielded similar results, with sensorgrams (FIGS. 14J-14L) that diverged from a simple 1:1 ligand-protein model. […]

In a further series the test system is A549 cells. Briefly: Protein uptake in A549 cells, Texas Red-labeled Transferrin. Type of series: cell-based, human. The note with it: PFNA, 24 hours of incubation. On the procedure: FIGS. 19A-19B depicts the uptake of Texas Red-labeled Transferrin in human lung A549 cells after 2 and 24 hours of incubation in the absence/presence of PFNA. Results are shown in relative fluorescence units (RFU).
Multiplexed in vitro assays were employed to probe the influence of PFNA interactions on protein uptake and transport in cells. A549 and PC9 human lung cells were prioritized for these assays given that pulmonary tissue is a primary site of perfluoroalkyl bioaccumulation in humans (Reference: 63). Before initiating experiments, cellular toxicity assays established a maximum tolerated dose of PFNA to avoid confounding protein transport experiments with substantive cell death. Protein uptake was then studied using green fluorescent protein (GFP) and bovine serum albumin (BSACy5) as model biologics that employ non-specific pinocytic mechanisms for cellular entry.

Sequence of transferrin (Q29443 20-704): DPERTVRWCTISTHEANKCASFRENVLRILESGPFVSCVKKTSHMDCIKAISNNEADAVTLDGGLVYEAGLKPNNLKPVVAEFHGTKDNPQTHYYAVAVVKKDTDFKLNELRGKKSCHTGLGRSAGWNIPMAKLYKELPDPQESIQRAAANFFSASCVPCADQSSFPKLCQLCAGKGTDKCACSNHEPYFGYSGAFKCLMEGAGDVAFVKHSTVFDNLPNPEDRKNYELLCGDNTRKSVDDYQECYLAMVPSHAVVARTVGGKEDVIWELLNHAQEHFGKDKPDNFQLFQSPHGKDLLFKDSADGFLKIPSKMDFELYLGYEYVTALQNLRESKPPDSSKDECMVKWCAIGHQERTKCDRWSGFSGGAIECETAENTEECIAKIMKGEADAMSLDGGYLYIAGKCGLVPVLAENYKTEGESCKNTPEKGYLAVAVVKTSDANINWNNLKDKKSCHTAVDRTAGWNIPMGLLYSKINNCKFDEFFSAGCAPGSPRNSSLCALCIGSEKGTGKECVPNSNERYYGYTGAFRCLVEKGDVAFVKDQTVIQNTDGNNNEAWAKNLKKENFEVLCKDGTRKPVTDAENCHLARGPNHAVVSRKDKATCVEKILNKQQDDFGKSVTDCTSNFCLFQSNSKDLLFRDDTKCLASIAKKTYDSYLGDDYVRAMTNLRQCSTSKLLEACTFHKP

With “β-Gal: β-Galactosidase (β-Gal), dissolved in PBS/saline or dispersed in PFOc”, the “β-Gal activity in presence of proteinase K” value is on record as “no statistically significant change in activity” in the series with proteinase K (PFOc formulation) and “completely inactivated” in the series with proteinase K (dissolved in PBS). Besides, in series [1] (HCl), the “β-Gal activity versus PBS controls” value was “statistically higher than that of PBS controls”. This compound gave a loss in functionality in series [1] (HCl (4% v/v of 0.1 M), few minutes) of no less than 50%. Also, the “serum half-life t1/2” value in series [2] (native β-Gal administered in saline) worked out at 7.2 min; in series [2] (β-Gal from PFOc formulations, extracted into saline), 30 min.
On to `O=C(O)C(F)(F)C(F)(F)C(F)(F)C(F)(F)C(F)(F)C(F)(F)C(F)(F)C(F)(F)F` [Compound 7, perfluoronanonic acid], for which the “CD structural profile, transferrin” value at transferrin was “remained largely unchanged”. In addition, the “evolution of heat (ITC)” value with β-gal [3] was “no significant evolution of heat”. Also, the SPR response result in the series on β-gal [4] is listed as “negative responses”. In the series on A549 cells, the “increase in cellular fluorescence (Transferrin uptake) compared to native protein” value was determined as 43%.
